Data from patent US20170129961A1 (Amgen, published 2017).
Residue numbers refer to the chain shown, from its start.

T1: full length human CD70 with C-terminal V5 tag (human, UniProt P32970 1-193)
T1 construct: On transfected CHO cells; also called huCD70-V5
T1 sequence: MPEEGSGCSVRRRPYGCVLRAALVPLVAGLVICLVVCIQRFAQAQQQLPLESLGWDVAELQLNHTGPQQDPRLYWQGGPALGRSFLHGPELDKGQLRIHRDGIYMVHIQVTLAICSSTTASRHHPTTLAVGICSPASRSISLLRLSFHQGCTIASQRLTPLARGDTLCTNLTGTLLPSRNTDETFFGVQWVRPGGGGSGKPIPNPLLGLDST

T2: full-length mouse CD70 with C-terminal V5 tag (mouse, UniProt O55237 1-195)
T2 construct: On transfected CHO cells; also called murine CD70
T2 sequence: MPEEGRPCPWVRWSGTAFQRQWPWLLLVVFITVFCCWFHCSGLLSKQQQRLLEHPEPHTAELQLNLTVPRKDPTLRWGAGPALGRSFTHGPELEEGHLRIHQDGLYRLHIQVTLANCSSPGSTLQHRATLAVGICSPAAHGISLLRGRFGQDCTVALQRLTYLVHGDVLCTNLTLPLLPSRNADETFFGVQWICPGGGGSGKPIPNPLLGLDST

T3: human CD70 (human, UniProt P32970 1-193)
T3 construct: also called hu CD70; CD27L
T3 sequence: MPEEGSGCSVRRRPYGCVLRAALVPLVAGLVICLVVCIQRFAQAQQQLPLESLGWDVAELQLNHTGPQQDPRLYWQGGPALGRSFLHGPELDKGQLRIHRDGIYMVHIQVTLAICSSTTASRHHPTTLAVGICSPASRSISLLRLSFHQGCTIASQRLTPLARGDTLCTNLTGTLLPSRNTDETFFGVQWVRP

B1: CD70-56 (scFv)
scFv: QVQLVESGGGVVQPGRSLRLSCAASGFTFSSYGMHWVRQAPGKGLEWVAVISYDGSNKYYADSVKGRFTISRDNSKNTLYLQMNSLRAEDTAVYYCARGRYYGSGSYNYGMDVWGQGTTVTVSSGGGGSGGGGSGGGGSDIQMTQSPSSLSASVGDRVTITCRASQSIFDYLNWYQQKPGKAPKLLIYAASSLQSGVPSRFSGSGFGTDFTLTISSLQPEDFATYYCQQSYSTPLTFGGGTKLEIK
notes: As m32
B2: CD70-71 (scFv)
scFv: B1 scFv with G44C, G239C
notes: As m32

Columns and labels:
Assay in all cases: FACS on CHO cells, periplasmic scFv
[1] = target: T1, full length human CD70 with C-terminal …
Description: (§1) All antibodies were diluted in PBS/1.5% FCS. As negative control, cells were incubated with PBS/2% FCS instead of the periplasmic extract. The samples were measured by flow cytometry.

[2] = target: T2, full-length mouse CD70 with C-terminal …
Description: as §1

human CD70 = target: T3, human CD70
Description: as §1

| Binder | binding result [1] | binding result [2] | binding result (human CD70) |
| --- | --- | --- | --- |
| B1 | no binding | no binding | binds |
| B2 | no binding | no binding | binds |
